In patent US20100196345A1:

Target: Mannose/N-acetylglucosamine (Man/GlcNAc) receptor on thioglycolate-elicited mouse peritoneal macrophages (mouse) (UniProt Q61830)
Experiment: cell-based or functional assay

Mannose/N-acetylglucosamine (Man/GlcNAc) receptor on thioglycolate-elicited mouse peritoneal macrophages (mouse), sequence (Q61830 20-1456): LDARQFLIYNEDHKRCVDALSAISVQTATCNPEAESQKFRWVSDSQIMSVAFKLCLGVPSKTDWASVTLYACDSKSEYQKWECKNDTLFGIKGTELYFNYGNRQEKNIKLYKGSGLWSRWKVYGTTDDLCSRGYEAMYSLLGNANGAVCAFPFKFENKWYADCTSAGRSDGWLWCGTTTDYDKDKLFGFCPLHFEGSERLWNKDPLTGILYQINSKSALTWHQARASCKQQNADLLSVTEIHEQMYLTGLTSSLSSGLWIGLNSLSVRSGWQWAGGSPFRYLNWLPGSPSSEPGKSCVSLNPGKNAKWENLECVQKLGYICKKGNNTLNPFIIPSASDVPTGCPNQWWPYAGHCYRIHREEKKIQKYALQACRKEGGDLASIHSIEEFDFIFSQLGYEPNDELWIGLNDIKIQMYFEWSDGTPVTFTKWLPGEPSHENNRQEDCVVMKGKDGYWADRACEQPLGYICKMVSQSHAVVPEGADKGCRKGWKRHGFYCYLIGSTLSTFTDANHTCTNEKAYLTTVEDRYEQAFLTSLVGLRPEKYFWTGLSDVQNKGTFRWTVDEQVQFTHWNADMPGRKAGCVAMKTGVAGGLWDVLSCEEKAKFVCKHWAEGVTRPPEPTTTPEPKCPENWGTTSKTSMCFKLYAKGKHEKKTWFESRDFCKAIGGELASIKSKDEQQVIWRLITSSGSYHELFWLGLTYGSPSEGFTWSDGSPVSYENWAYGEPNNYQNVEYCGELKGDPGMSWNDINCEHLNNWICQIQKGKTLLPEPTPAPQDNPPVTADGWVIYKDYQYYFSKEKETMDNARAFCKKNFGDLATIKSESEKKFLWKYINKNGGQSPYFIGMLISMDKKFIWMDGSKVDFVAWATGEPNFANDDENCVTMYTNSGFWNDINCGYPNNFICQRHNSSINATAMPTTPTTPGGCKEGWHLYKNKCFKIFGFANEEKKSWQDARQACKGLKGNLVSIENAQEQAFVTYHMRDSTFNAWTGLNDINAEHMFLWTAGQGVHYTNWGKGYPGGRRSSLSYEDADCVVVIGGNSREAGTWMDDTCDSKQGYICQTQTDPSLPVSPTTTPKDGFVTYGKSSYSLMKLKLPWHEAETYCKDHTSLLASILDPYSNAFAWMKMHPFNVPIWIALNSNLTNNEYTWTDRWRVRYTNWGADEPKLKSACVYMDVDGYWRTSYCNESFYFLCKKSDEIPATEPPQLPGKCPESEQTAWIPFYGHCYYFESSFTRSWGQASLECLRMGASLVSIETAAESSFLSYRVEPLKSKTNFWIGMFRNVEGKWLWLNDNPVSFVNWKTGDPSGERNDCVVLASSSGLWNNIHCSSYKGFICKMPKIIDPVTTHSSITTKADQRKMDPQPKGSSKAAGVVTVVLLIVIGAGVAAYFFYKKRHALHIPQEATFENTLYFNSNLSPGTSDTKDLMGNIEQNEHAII

Cerezyme (commercial recombinant human GCD produced in mammalian CHO cells) (from UniProt P04062 40-536) (enzyme)
percent of specific activity from total activity, inhibited by 4 mg/ml mannan: 65%
